# From article PMC8062929, “ZmOrphan94 Transcription Factor Downregulates ZmPEPC1 Gene Expression in Maize Bundle Sheath Cells”
# T1: Trx::ZmOrphan94 (Zea mays B73, UniProt C0P6E9 1-264)
# T1 sequence: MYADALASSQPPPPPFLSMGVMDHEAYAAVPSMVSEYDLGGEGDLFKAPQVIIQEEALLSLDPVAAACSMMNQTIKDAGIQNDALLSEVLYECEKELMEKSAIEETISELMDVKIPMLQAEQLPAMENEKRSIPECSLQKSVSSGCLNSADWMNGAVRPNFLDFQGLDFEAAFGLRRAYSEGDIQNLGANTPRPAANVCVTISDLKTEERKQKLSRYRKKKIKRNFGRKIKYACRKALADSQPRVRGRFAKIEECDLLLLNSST
# B1: 5U-ZmPEPC1-2 (dsDNA)
# DNA 1: ACGTGCGAGGGCCGCCCGTTCCCGTGCACAGCCACG
# DNA 2: ATCACGTGGCTGTGCACGGGAACGGGCGGCCCTCGC
# B2: 5U-ZmPEPC1-1 (dsDNA)
# DNA 1: ACGTGGCGGTTACCGCCGATCACATGCCCAAGGCCG
# DNA 2: ACATCGGCCTTGGGCATGTGATCGGCGGTAACCGCC
# B3: 5U-ZmPEPC1-3 (dsDNA)
# DNA 1: ACGTGTCCCGTGCACAGCCACACACACACCCGCCCG
# DNA 2: ATCACGGGCGGGTGTGTGTGTGGCTGTGCACGGGAC
# Legend:
# [1] = molecular target: T1, Trx::ZmOrphan94; experiment: EMSA; out-competed by unlabelled WT probe (400x); EMSA: 1 ug protein, 50 fmol probe in 10 ul; 10 mM HEPES pH 7.9, 40 mM KCl, 1 mM EDTA, 1 mM DTT, 50 ng herring sperm DNA, 15 ug BSA, 10% glycerol, 1 h on ice; 5% native PAGE; conditions: protein: recombinant; tags: N-terminal Trx (pET32a); label: 32P; 5' overhang 4 nt on each strand as annealed
# [2] = molecular target: T1, Trx::ZmOrphan94; experiment: EMSA; strongest band; out-competed by unlabelled WT probe (400x); EMSA: 1 ug protein, 50 fmol probe in 10 ul; 10 mM HEPES pH 7.9, 40 mM KCl, 1 mM EDTA, 1 mM DTT, 50 ng herring sperm DNA, 15 ug BSA, 10% glycerol, 1 h on ice; 5% native PAGE; conditions: protein: recombinant; tags: N-terminal Trx (pET32a); label: 32P; 5' overhang 4 nt on each strand as annealed
Binder,binding result [1],binding result [2]
B1,binds,
B2,binds,
B3,,binds
